Assays:
[1] = substrate: O=c1[nH]c(=O)c2ncn([C@@H]3O[C@H](CO)[C@@H](O)[C@H]3O)c2[nH]1; assay: HILIC-HPLC of released nucleobase, Michaelis-Menten fit; assay type: biochemical, Limosilactobacillus reuteri; conditions: Tris-HCl pH 7.5
Source text: (§1) HILIC-HPLC of released nucleobase, Michaelis-Menten fit on LreRihC_HisN

[2] = substrate: O=c1ccn([C@@H]2O[C@H](CO)[C@@H](O)[C@H]2O)c(=O)[nH]1; assay: as above; assay type: biochemical, Limosilactobacillus reuteri; conditions: Tris-HCl pH 7.5
Source text: as §1

[3] = substrate: OC[C@H]1O[C@@H](n2cnc3c(O)ncnc32)[C@H](O)[C@@H]1O; assay: as above; assay type: biochemical, Limosilactobacillus reuteri; conditions: Tris-HCl pH 7.5
Source text: as §1

[4] = substrate: Nc1ncnc2c1ncn2[C@@H]1O[C@H](CO)[C@@H](O)[C@H]1O; assay: as above; assay type: biochemical, Limosilactobacillus reuteri; conditions: Tris-HCl pH 7.5
Source text: as §1

purified protein = substrate: Nc1ccn([C@@H]2O[C@H](CO)[C@@H](O)[C@H]2O)c(=O)n1; assay: purified protein; conditions: Tris-HCl pH 7.5
[5] = substrate: O=c1[nH]c(=O)c2ncn([C@@H]3O[C@H](CO)[C@@H](O)[C@H]3O)c2[nH]1; assay: HILIC-HPLC of released nucleobase, Michaelis-Menten fit; assay type: biochemical, Limosilactobacillus reuteri; conditions: Tris-HCl pH 7.5; remark: listed apart in the source
Source text: (§2) HILIC-HPLC of released nucleobase, Michaelis-Menten fit on LreRihC_HisC

[6] = substrate: OC[C@H]1O[C@@H](n2cnc3c(O)ncnc32)[C@H](O)[C@@H]1O; assay: as above; assay type: biochemical, Limosilactobacillus reuteri; conditions: Tris-HCl pH 7.5; remark: listed apart in the source
Source text: as §2

[7] = substrate: Nc1ncnc2c1ncn2[C@@H]1O[C@H](CO)[C@@H](O)[C@H]1O; assay: as above; assay type: biochemical, Limosilactobacillus reuteri; conditions: Tris-HCl pH 7.5; remark: listed apart in the source
Source text: as §2

[8] = biological target: the molecule itself; assay: SEC; analytical gel filtration on HiLoad 16/600 Superdex 200 pg, 1 mg of sample applied, mass read from a calibration curve (Gel Filtration Calibration Kit HMW)

B1: LreRihC_HisN (Limosilactobacillus reuteri) (protein)
chain: TTKIIMDTDPGIDDAAALTMAINDPSLDLKLVTTVAGNVTADKTTANALKIIHFFGKDIPVAAGAKQPLIKPFEDAARIHGESGMPGYDFGDDYGKPLDKTAVEALHDAIMAEDEVILVPTGSYTNIALLFSEYPEVKSHIKQIVAMGGSFSGGNMTSAAEFNVFTDPDAAKIMYNAGVPIVTVGLDVTLKALLTADTIEKLGSLNKTGEMLHGLITHYNDGNDQGRPMHDVNTIFYLLHPEAFTTKDMWVDIQTDGPAIGATVGDIRAAYHDGKTNAKVCLDIDAEYFNKWFLEEVSKMK
notes: E. coli BL21(DE3), pET24a(+); tetramer (121 kDa)
Km [1]: 1200 ± 200 µM | kcat [1]: 57 ± 8 s⁻¹ | Km [2]: 320 ± 40 µM | kcat [2]: 167 ± 6 s⁻¹ | Km [3]: 2500 ± 600 µM | kcat [3]: 30 ± 5 s⁻¹ | Km [4]: 420 ± 50 µM | kcat [4]: 118 ± 4 s⁻¹ | Km (purified protein): 680 ± 80 µM | kcat (purified protein): 112 ± 4 s⁻¹

B2: LreRihC_HisC (Limosilactobacillus reuteri) (protein)
chain: MTTKIIMDTDPGIDDAAALTMAINDPSLDLKLVTTVAGNVTADKTTANALKIIHFFGKDIPVAAGAKQPLIKPFEDAARIHGESGMPGYDFGDDYGKPLDKTAVEALHDAIMAEDEVILVPTGSYTNIALLFSEYPEVKSHIKQIVAMGGSFSGGNMTSAAEFNVFTDPDAAKIMYNAGVPIVTVGLDVTLKALLTADTIEKLGSLNKTGEMLHGLITHYNDGNDQGRPMHDVNTIFYLLHPEAFTTKDMWVDIQTDGPAIGATVGDIRAAYHDGKTNAKVCLDIDAEYFNKWFLEEVSKMK
notes: E. coli BL21(DE3), pET24a(+); tetramer (123 kDa)
Km [5]: 1300 ± 200 µM | kcat [5]: 40 ± 6 s⁻¹ | Km [6]: 2600 ± 600 µM | kcat [6]: 18 ± 6 s⁻¹ | Km [7]: 480 ± 90 µM | kcat [7]: 65 ± 7 s⁻¹ | Km (purified protein): 620 ± 60 µM | kcat (purified protein): 58 ± 6 s⁻¹

B3: ribonucleoside hydrolase C from Limosilactobacillus reuteri LR1 with the addition of His-tag to the C-terminus of the enzyme (enzyme, UniProt A5JJT3 1-302, looked up)
chain: B2 chain
notes: 308 residues and 33.38 kDa with the His-tag; PDB 8QND is the structure of the N-terminally tagged form of the same protein; source: E. coli BL21(DE3), purified (HisTrap FF, desalted on Sephadex G25); not shown: His6, C-terminal, kept
stoichiometry N [8]: 4

B4: ribonucleoside hydrolase C from Limosilactobacillus reuteri LR1 with the addition of His-tag to the N-terminus of the enzyme (enzyme, UniProt A5JJT3 1-302, looked up)
chain: B2 chain
notes: Ribonucleoside hydrolase C (RihC) of Limosilactobacillus reuteri LR1, cloned from genomic DNA with primers from the start codon to the stop codon; 308 residues and 33.38 kDa with the His-tag; The residue numbers printed for the crystal structure (D16, D20, D21, loop DGNDQ 228-232) seem to count on the tagged construct (surmised from the primer); Each subunit holds one Ca2+ ion; source: E. coli …
stoichiometry N [8]: 4
